Test results from the supplement of paper PMC9112550, “Optimization of the antimicrobial peptide Bac7 by deep mutational scanning” (BMC Biology, 2022).

Tested on: Escherichia coli TOP10
Assay: shrunken log2 fold change of peptide-encoding DNA abundance (4.5 h post-induction vs induction); higher = less antimicrobial activity (less host growth inhibition)
Details: time post-induction: 4.5 h; library: site-saturation at positions 5, 18, 19, 20
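Further: peptides expressed intracellularly from a pBAD plasmid library in pooled LB shake-flask culture, induced with 0.3% L-arabinose, DNA abundance read by NGS, three biological replicates, DESeq2 with apeglm shrinkage.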

Sequence | shrunken log2 fold change
RRIRLRPPRLPRPRPRPKYHPRP | -0.472
RRIRLRPPRLPRPRPRPLAEPRP | 0.289
RRIRLRPPRLPRPRPRPLAFPRP | -0.092
RRIRLRPPRLPRPRPRPLAWPRP | 0.32
RRIRLRPPRLPRPRPRPLESPRP | -0.212
RRIRLRPPRLPRPRPRPLGPPRP | 0.332
RRIRLRPPRLPRPRPRPLHVPRP | -0.173
RRIRLRPPRLPRPRPRPLITPRP | -0.238
RRIRLRPPRLPRPRPRPLKEPRP | 0.00325
RRIRLRPPRLPRPRPRPLKPPRP | 0.171
RRIRLRPPRLPRPRPRPLKVPRP | -0.0503
RRIRLRPPRLPRPRPRPLMIPRP | -0.288
RRIRLRPPRLPRPRPRPLMMPRP | -0.164
RRIRLRPPRLPRPRPRPLNLPRP | -0.381
RRIRLRPPRLPRPRPRPLNYPRP | -0.501
RRIRLRPPRLPRPRPRPLRIPRP | -0.031
RRIRLRPPRLPRPRPRPLSDPRP | 0.0376
RRIRLRPPRLPRPRPRPLTEPRP | 0.098
RRIRLRPPRLPRPRPRPLTQPRP | 0.343
RRIRLRPPRLPRPRPRPLVAPRP | 0.343

Sequence | shrunken log2 fold change
RRIRLRPPRLPRPRPRPLVDPRP | -0.0956
RRIRLRPPRLPRPRPRPLVPPRP | -0.258
RRIRLRPPRLPRPRPRPLWAPRP | 0.129
RRIRLRPPRLPRPRPRPMAWPRP | -0.0215
RRIRLRPPRLPRPRPRPMCAPRP | 0.0321
RRIRLRPPRLPRPRPRPMCSPRP | 0.382
RRIRLRPPRLPRPRPRPMFAPRP | 0.082
RRIRLRPPRLPRPRPRPMHQPRP | 0.136
RRIRLRPPRLPRPRPRPMLNPRP | -0.423
RRIRLRPPRLPRPRPRPMLYPRP | -0.232
RRIRLRPPRLPRPRPRPMMIPRP | -0.203
RRIRLRPPRLPRPRPRPMQNPRP | 0.141
RRIRLRPPRLPRPRPRPMSYPRP | -0.25
RRIRLRPPRLPRPRPRPMVAPRP | -0.147
RRIRLRPPRLPRPRPRPMVKPRP | -0.147
RRIRLRPPRLPRPRPRPMYHPRP | -0.493
RRIRLRPPRLPRPRPRPMYSPRP | -0.364
RRIRLRPPRLPRPRPRPNDFPRP | -0.0142
RRIRLRPPRLPRPRPRPNDWPRP | -0.261
RRIRLRPPRLPRPRPRPNELPRP | 0.0122

Sequence | shrunken log2 fold change
RRIRLRPPRLPRPRPRPNFEPRP | 0.0189
RRIRLRPPRLPRPRPRPNIGPRP | -0.00419
RRIRLRPPRLPRPRPRPNKRPRP | -0.121
RRIRLRPPRLPRPRPRPNLHPRP | -0.347
RRIRLRPPRLPRPRPRPNLNPRP | -0.716
RRIRLRPPRLPRPRPRPNLQPRP | -0.0904
RRIRLRPPRLPRPRPRPNLTPRP | -0.299
RRIRLRPPRLPRPRPRPNMFPRP | -0.225
RRIRLRPPRLPRPRPRPNNFPRP | -0.184
RRIRLRPPRLPRPRPRPNPEPRP | 0.0435
RRIRLRPPRLPRPRPRPNPPPRP | 0.0837
RRIRLRPPRLPRPRPRPNQTPRP | -0.0464
RRIRLRPPRLPRPRPRPNRCPRP | -0.231
RRIRLRPPRLPRPRPRPNTQPRP | -0.0732
RRIRLRPPRLPRPRPRPNVDPRP | -0.492
RRIRLRPPRLPRPRPRPNWLPRP | 0.0723
RRIRLRPPRLPRPRPRPNWPPRP | 0.379
RRIRLRPPRLPRPRPRPNWWPRP | 0.117
RRIRLRPPRLPRPRPRPPCMPRP | -0.0839
RRIRLRPPRLPRPRPRPPCQPRP | 0.062
